In assay [1] the target is T1, human IL-13 (human, UniProt P35225). The assay can be described thus: SPR, average. Background: Surface plasmon resonance follows binding to a sensor surface in real time, without labels.
Assay [2] concerns the target T1, human IL-13. The assay can be described thus: SPR, 25C, average of 3 determinations.

T1 sequence (P35225 25-146): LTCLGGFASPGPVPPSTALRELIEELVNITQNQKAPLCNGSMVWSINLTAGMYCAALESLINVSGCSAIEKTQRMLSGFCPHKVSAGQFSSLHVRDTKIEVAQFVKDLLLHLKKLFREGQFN

B1: Ab652 Fab (antibody, V domains shown)
VH: QVTLKESGPVLVKPTETLTLTCTVSGFSLSNARMGVSWIRQPPGKALEWLAHIFSNDEKSYSTSLKSRLTISKDTSKSQVVLTMTNMDPVDTATYYCARIYFDYWGQGTLVTVS
VL: DIQMTQSPSSLSASVGDRVTITCLASEDISNYLAWYQQKPGKAPKLLIYHTSRLQDGVPSRFSGSGSGTDFTLTISSLQPEDFATYYCQQGYRFPLTFGGGTKVEIK
Take B1: the Kd with human IL-13 [1] was 0.0134 nM; with human IL-13 [2] it was 0.015 nM.

The Kd is the free concentration of one partner at which half of the binding sites on the other are occupied at equilibrium, for simple one-to-one binding. High values mean weaker binding, low ones tighter binding.

These data come from patent US9957320 (dated 2018).
